Results published in the DeepSol protein solubility set.

Test: soluble on expression in E. coli; label from the status in PepcDB or PDB records

| Sequence | soluble on expression in E. coli |
| --- | --- |
| MTDIDAIIIGAGVIGLATARELSMHGLSVIILESETEFGSATSSRNSEVIHAGLYYPAGSLKARLCVEGRQRLYDFCESHGVAHRHCGKLIVATSDDETPLLVALGAKGKANGCDDLELIDQRHALSLEPALACSSALLSPSTGIIDSHGYMLALLGEAQDHGAALALNAPFERAEAIGDGFRVHVGGKEPVSLTCRLLVNSAGLVAPMVAAMIEGLPSVAIPQARFAKGSYFSLTGKSPFSRLIYPAPHTHGLGVHLTLDLAGQARFGPDVEWVDTIDYAVDPRRMEGFGDAIRRYWPGLPEHTLAPAYSGIRPKISGPDEPAMDFRIDGPETHGFPGLVNLFGIESPGLTASLAIAGEIAARLEALEHHHHHH | not soluble |
| MSLTKTVLILTAAIDLDGGDWFSPCWERVTRSMALGKAGDIIHGCVPGAALAIREEKPIAAGRSAQNRRGSFREQEDGSYVLLAGRIFNRTDLLRRFDLKQGMDDADLYAAVSARMGEAAYRAIVGDYAALQWFPQRRSLRLARSGTSNMPLHVWRDGSRIVISSLPGPILASGVPARINDDRVADELLLFSPDGRTSFYAGMHRVPGGGEEVHDPSGFKARRLWSVKDAPEIRLRRDEDYVEALDVLFDEAVSATMDGSSAPGILLSGGFDSQTVASYAVKRLPAGRRLQAFTSVPMQGWTPPPRPGIFGDESAHVRALCAMYPQIEPHFIEAADFRYGERGHRQFLVGGWPVFNEMNAHWSHASLEQAADLGCDLMLTGDLGNSGFSYDGLTGYPTWLREGQWFRLLREIGKSDDPRPFWRKLISLAVMPHVPVRWKRKMDRHRPWRPSAFATWCGMREDFARESGVLDRAEAGGHDIDFYDIPSARTWRANVVDSLNDGAPEIYLGYQLLYGVPMRDPTAYLPLLEFCAGIPDEQYLRDGQTRWLARRLMQGRVPEMVRLENRIGAQSSDWPQRFARDREDLIAEMERMKADERLAKIFDFERLAANLREWDGSDRPESRSNFKINAAVGRAMVSARFVSHVEGRNVGEGHHHHHH | soluble |
| MSKILVFGHQNPDSDAIGSSYAFAYLAREAYGLDTEAVALGEPNEETAFVLDYFGVAAPRVITSAKAEGAEQVILTDHNEFQQSVADIAEVEVYGVVDHHRVANFETASPLYMRLEPVGSASSIVYRMFKEHGVAVPKEIAGLMLSGLISDTLLLKSPTTHPTDKVIAPELAELAGVNLEEYGLAMLKAGTNLASKSAEELIDIDAKTFELNGNNVRVAQVNTVDIAEVLERQAEIEAAIEKAIADNGYSDFVLMITDIINSNSEILAIGSNMDKVEAAFNFVLENNHAFLAGAVSRKKQVVPQLTESFNA | soluble |
| MLPAYIRIHDQIKKEIDEGLWKIGDRLPSERDLAERFEVSRMTLRQAITLLVEEGILERRVGSGTYIASSRVQEKMRGTTSFTEIVKSQGKTPSTKLISYRRVHPSEQEIKFLDIKPKSYIIRMERVRYADDIPVVFEVTAIPEKIIKSFKKEAITKHFFKTLTDHGFVIGKSQQTISASNANEMTADYLAISRGHAVLTLAQVSYFENGMPFEYVRSQYVGERFEFYLENK | not soluble |
| MPEQLKQRVETCYQQAEAFFKRRFPRPEVSFKLRGQKAGVAHLHENLLRFNLQLYRENQEDFLRQTVAHEVAHLVAHQLFGDRIQAHGEEWQLIMRGVYELPPNRCHNYDVQRRAVTRYIYRCPCPQSDFPFTAQRHKLVHQGRRYLCKRCREVLVYSGETRVE | soluble |
| MAHHHHHHMLSRVAAVKAPRTHNRRRVTGSSGRTREGGESEPRRPNMSRRVFPSAVLLLLVTMMCCDRGAATAQVEKATDASTPSGSALTGAITAEGSASGGVERPQRVDLFVPQTKQVLQKTGTDSGRRDSFVSPSLVSAGGVIAAFAEGHINAKNPIPNQLSRLLMLLRSTSTLRGNGPLLLKRSIKKEWSARTVLGKAEGNESFDVVRHPTTTMKGNKMFLLAGSTALSDLNGSWKEGSLEIKLVVGEVTKPTDSEQSKRIEWGEIKSPLNGSTLAAHKGNLTECLASGGSGVLMEDGTLVFSLMAVNEKNDGVYSMIIYSKDNGSTWALSEDISPAKCLNPRITEWEGSLLMIVDCENDQRV | not soluble |
| MLDKIRFTVLLDRPFYQPGQTIQGHVVCEPHHPLEIDCVEGRLHGEIQYFQQLPPNHNRNGSPLPPSKTRVLIDEKAQLWKYQTVSEMLGLDVFYDENQNRHFSSESASASSSSLFTTAATFPIQIELPHFAPPSFYCPGSPVSIRFTLEIQLYNQGFKIASHEENLVVLNYESIKRQVTPKPVNFQKTFNFPKERSISLEMLLPTDVFTTTARLENCITICNRWKQSLKYVHLNIVRRISALNQNNEVIDTVKIDTTGVGLPSKTKIAVGETYSFRPTFNVPALPPNIHVNGLFKTEYSLKVTIGRAHNFVLASYEVPITIVTMDQSSRRSMQKEDILVDISASNNTLNNLPVDLLA | not soluble |
| MVLEVNQAIVNESLQTEQVMEQLSSTVDVIVDNIEKYTNAARYGKGNNYALNNLRTAVQNQFPLVDWLLSTSLSQMIENAWQNGSLPTVTDEDGNVYLKAPLNVFTTPPKDTKGECCWLPFDIAACGGKAPINILCLKDCVDMLNHLLDRKLKVQSNDLIGFFKQAGQTYEEVRDFMNRESMAFYTANTIVNGQLDVTTPILKKFHGLMEILKRPEVFKMQGTNILAAFDSIGYRMDVLGGSFIFAAHPLTVASIKNAIRPNRYGILPDGWTINGESIFYKGAQVLPDKTVPVDVENGTGVIWQLSGESVGVFLGTTLRPAEDYIIRNQFTTTNDVNKGCATECDIYYNLGSVVTNNVARLAVITDVPLAAGINAYSLANLLDRVYVETLAP | not soluble |
| MSLTYDLIITDSHVMTPNGMVEKNIVIDSGKIKLITNDTPTCDKKIKGSGLVSIPGVIDPHVHYGVYSPIDQAAKTESHAAAIGGVTTMIRMFRLEGSYKDSLQKHLLASQNSHYIDYTIHASIFDTSQIDEMKYCTENQILSFKIYMNLGGDVGHVYMEMNPGEEKLISSHVNVTNELVEKIVKRAGELKCPVLVHAEDYQECACAMKTEQEKKHDGLNSWSESRSPDFEAKSIKTICEYGRKYDCVIYFVHIGSKLALEQIQIEKNNGTKIFVETCPHYLTLSHETQDGYLAKVMPPIRTKNDVEYVWESLQKNHINTIGTDHVANQLKLKLGGDDVWGALAGFPGIGTSLPILLSEGINKNRITLDQLVNLTSANTSKIFGLSDKGNISTGYEGHHHHHH | soluble |
| MTRAQPEPVQVVKQRRDAALRALVSGVPYITYLGIQFDRRGDELTAVLPFDEKLIGNPMLPAIHGGVTAAFLEVASIIELSWSVLWHEMEQGRLDPDQIEARLPRLPKTIDFTVDYLRSGLPRDAYARARVNRSGRRYASVHVEAWQDNRLRPFAQATGHFLMPARNDLEHHHHHH | soluble |
| MSLLIETTMTFLCPLCEHPLTLNQNTYACINRHQFDVAKEGYVNLMPVQHKRSKDPGDNKEMTQARRRFLHTGHYAPMREKVATLCQTYLTDRQQTLLDIGCGEGYYTDFFAKALRQQDSEAQIFGLDISKIAIRYAAKRYPECQFAVASSHRLPFANQSLDGVIRIYAPCKDTELERCIKIGGIVITVTPAARHLYQFKQGIYDQVRLHEEQPETLSGFELVEECKLHYPMALNGSEAADLLQMTPFAWRASEDFKHRVSQSDTFECEADFMLRVYRRKEGHHHHHH | soluble |
| MSDPADVFDLVGLTEYEATALEQLLSLGRTTAPNLAEASGIPKARVYGVLESLSDRGFIKLIPGRPKEYQPKSPSDILDRAVENRKQSYESFAADMDSYRDAFLAEYEPRFERANEDISPTAELFHVVDVGEPSERETRRLYDDADETLRVITNSFAYLDNVERALAETLDRGVEVNVLFLHPDALPPEKAAVQADIVDRLTAEYPAIDLRFSTEKLPWRGTLVDPSMDYDSGEAILLVEEPDVPNHMRQAAITDNGSFVAGMKRYFDLVWEYESVQRSN | not soluble |
| MGSDKIHHHHHHMEFYDIVIVGGGPAGLAAAASAKKNKIDKILILERDCELGGILNQCIHNGFGLHTFKEELTGPEYAGRFIKEVKELGIEYRLNTMVMDISTGDESENGSNDKIVTAMNRTDGLFHIAAKTVILAMGCRERARGALNIPGYRPAGIFSAGTAQRLVNIEGYMPGRKVVILGSGDIGLIMARRMTLEGAKVQVVAELMPYSGGLKRNIVQCLDDFNIPLKLSHTVVDIKGRERVEGITLAQVDEHNKPIEGTEEFYECDTLLLSCGLIPENEISKTAGVELNPVTSGPVVNESLETNVPGVFACGNVLHVHDLVDYVSEEATAAGRHAAEYVKNGGDKSCDGKEISITATGGVRYTVPSTINTAQMDDTVTVRFRVGAVYKNCYIAVYLDDKQLQHRKRPVMAPGEMEQVVLQKKQLIETDNPCTITIKIEEA | not soluble |
| QRQSPIYHAQATVLIKSAEKSGATSGLQQFQELGLMIGNSEVENEILMLKSKRLTAIVVDKLDLDVSIYKQGFWRNESLYGNSPVSIQITDRDSTENYSFRIQINDAHSFQLTHFEQKERNGIGDIKIDGSFGRPIATPVGELKLNTTLFFADSWKGEVLYVTKENTRKVVERYNQDLQVSLADKKATIVNLSLKNEDLDRAKNFIDALIASYNDDVMNDKKSVAVSTAAFIDERLAMIGGELGTVDTEIETFKKRNNITDISTDVGTYLKSSADLQKDQLIVERNLSLAKYIQSFLRQTSTDNELMPANLGLTERGIDNSITLYNELKLKYDRLKQSSSENSPAVQEVGMQLVAMRKSINAAVDNYIKTLNLQLREVNKEMSRTKEQISAVPTQEKIMSTILRQQKIKEELYLYLLNKREENALRLAITESNAKTVDSADGSSEPISPRKP | not soluble |
| MKTQHVVVVGAGMGGLAAAIDLASRGLRVTVLERSPSPGGKMREIAVGGARLDAGPTVFTMRWVFEELFADAGASLGESLRLRAAEVLARHTWGDGAPFDLFADAARSTEAVGELAGAAEAKRFVAFCARARGIWQALEGPFIRGQRPSPGELVRRSGLSGLSGLARISPFTLLWKALGEHFHDPRLRQLFGRYATYCGSSPFLAPATLMLVAHVEQQGVWMVDGGMHQIARAMADLATAKGATFRYSTTAESVLVENGKVGGLILQGGERLAADIVLINGDAAALAARCFGPQVAAAVPPVPPTARSLSAVTWGLLAEAEGFPLLRHSVFFGNDYPGEFRDIFTHGRLPSSPTVYVCAQDRGDKAPTVGPSGPRPERLLVLVNAPARGDLSFPDAMELDTCTARTFAFLERCGLTLRRTPEATRVTTPADFNSLFPATGGALYGRASHGWSATFDRPGAKTAMPGLYLAGGSVHPGPGVPMAALSGRLAAQAVLADLTSRGRLEHHHHHH | not soluble |
| MVNQPLVSIIIPAYRAENTIAFTVRSVLAQTYDHWQVAIGVDDQVDYLQLLAEQGINDPRLKQVFTGGIGSGEAIARNKAVSICDGDILANLDADDAFASDRLEKLVPLAEKYGVAIDNTGVYNSELVLYKQPFPQRQALNFATAADILSPRIPFFPVFQRQLLGDGWTKVPFAADVLFNLELLSRTEKVAIHPEPLYRYYKRDNSITQSANAFETAEKAYLTILSLLDEGALTLTDAIRQAARQEFSENLALNKVFRRYMEEGRCQNLEQFLDMTNNGQKIEFVSNLNLEHHHHHH | soluble |
| DKSYRSTKEIMEYANRFLNDTSIIPMVRSGEKVQSLSISSEDEFVDRVTYAIDDMKKEGIETIGVICENMHDTKYFGELLKSKKYINIIEKENQIYTGGETVMPSYFAKGLEFDGVILVSRENKENKDRVLYVMATRALHKLYDFHIEF | not soluble |
| MQQLPKLDLKNKVSAQEWQLRVDLAACYRLLQMHGWDDLIHTHISVCIPGTEHILINAFGLAFEEITASNLVKIDIKGNIIDKDCPFEINPAGFTIHSAVHEVRHDDICALHVHTNETIAVASVEEGLLPLSQYSMFALASMSYHDYEGLAVNDDEKLRLQNDLGDKNFMLLRNHGALTMGKTIGDAFMHMYDLTRACQIQLQVMATGMKPIYAPQSIIDGIKAQANIVHDGETGGQKAWPAMLRRVYRNDPTFAE | not soluble |
